# Experimental data reported in PMC11374677 (Nature, 2024).
# B1: SARS-CoV-2 non-structural protein 4 (nsp4), wild type (natural protein)
# chain: KIVNNWLKQLIKVTLVFLFVAAIFYLITPVHVMSKHTDFSSEIIGYKAIDGGVTRDIASTDTCFANKHADFDTWFSQRGGSYTNDKACPLIAAVITREVGFVVPGLPGTILRTTNGDFLHFLPRVFSAVGNICYTPSKLIEYTDFATSACVLAAECTIFKDASGKPVPYCYDTNVLEGSVAYESLRPDTRYVLMDGSIIQFPNTYLEGSVRVVTTFDSEYCRHGTCERSEAGVCVSTSGRWVLNNDYYRSLPGVFCGVDAVNLLTNMFTPLIQPIGALDISASIVAGGIVAIVVTCLAYYFMRFRRAFGEYSHVVAFNTLLFLMSFTVLCLTPVYSFLPGVYSVIYLYLTFYLTNDVSFLAHIQWMVMFTPLVPFWITIAYIICISTKHFYWFFSNYLKRRVVFNGVSFSTFEEAALCTFLLNKEMYLKLRSDVLLPLTQYNRYLALYNKYKYFSGAMDTTSYREAACCHLAKALNDFSNSGSDVLYQPPQTSITSAVLQ
# Target: SARS-CoV-2 non-structural protein 3 (nsp3), TwinStrep-EGFP tagged, wild type (SARS-CoV-2 (Wuhan-Hu-1), UniProt P0DTD1)
# Test: […]
binder,measurement,value
B1,stoichiometry N,1 ratio nsp4:nsp3 (12:12 in the complex)
